# Data: the supplement of paper PMC10126150
# ± gives the standard deviation of the averaged measurements.
# System: ATP
# Test: switch fluorescence ratio, 500 uM ATP over buffer (Cy3 cluster intensity, sum of 5 cycles each) (fold (ratio)); higher = stronger signal-on switching upon ATP binding; sequences stand for … in TCGTCGGCAGCGTCAGATGTGTATAAGAGACAGTTTTTTTTTTTTTTTTTTTTTTTTT…TC
# Settings: aptamer strand: ATP DNA aptamer (quencher-CACCTGGGGGAGTATTGCGGAGGAAGG + anchor), 100 nM annealed; ATP concentration: 500 uM
# How it was run: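 Exposure to 500 uM ATP lasted 15 min at 22 °C before imaging, and a selection-buffer image was taken beforehand, for Cy3-labelled switching-strand clusters on a modified Illumina MiSeq flow-cell annealed to 100 nM quencher-labelled ATP aptamer. Five buffer/ATP cycles were run with NaOH stripping and re-annealing between them. The fluorescence ratio per cluster is summed target-cycle over summed buffer-cycle Cy3 intensity, averaged per switch-domain sequence. Clusters outside 100-1000 RFU were excluded.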
row,Sequence,switch fluorescence ratio
1,AGCGAGAGGG,0.974 ± 0.031
2,AGCGAGGGGG,1.03 ± 0.032
3,AGCGAGTTGG,0.958 ± 0.039
4,AGCGCCGGGG,1.03 ± 0.015
5,AGCGCCTTTG,0.9905 ± 0.0024
6,AGCGCGCGGC,0.998 ± 0.013
7,AGCGCGGGGG,1.002 ± 0.006
8,AGCGGAGTTT,0.984 ± 0.031
9,AGCGGATGTG,0.978 ± 0.027
10,AGCGGATTAA,1.016 ± 0.0017
11,AGCGGCACAC,1.073 ± 0.0095
12,AGCGGCCCGG,1.02 ± 0.017
13,AGCGGGGGCT,0.997 ± 0.045
14,AGCGGGTTAA,1.017 ± 0.0096
15,AGCGGTAGGG,1.022 ± 0.0082
16,AGCGGTCGGC,1.04 ± 0.018
17,AGCGGTCTAT,1.021 ± 0.005
18,AGCGGTTCGC,0.9931 ± 0.0056
19,AGCGTCAGCC,0.99 ± 0.05
20,AGCGTCAGTA,0.999 ± 0.014
21,AGCGTGTGTG,1.05 ± 0.059
22,AGCGTTGATG,1.01 ± 0.03
23,AGCGTTTGGG,1.0289 ± 0.001
24,AGCTAATCGT,1.01 ± 0.014
25,AGCTACGGTG,1.044 ± 0.0052

row,Sequence,switch fluorescence ratio
1,AGCTAGCGTT,0.997 ± 0.024
2,AGCTAGGGTC,1.05 ± 0.049
3,AGCTATTTGC,0.983 ± 0.048
4,AGCTCATGTG,0.988 ± 0.026
5,AGCTCGGTCG,0.963 ± 0.017
6,AGCTCTGACG,1.02 ± 0.024
7,AGCTCTGGCC,0.961 ± 0.04
8,AGCTGAAGAC,1.25 ± 0.097
9,AGCTGCAGTG,1.02 ± 0.019
10,AGCTGGGCTC,1.07 ± 0.016
11,AGCTGGGTCC,1.04 ± 0.041
12,AGCTGGTCCG,1.02 ± 0.022
13,AGCTGTGAC,1.07 ± 0.04
14,AGCTTAAGGG,0.967 ± 0.02
15,AGCTTATGGT,0.962 ± 0.049
16,AGCTTCAGGG,1.01 ± 0.037
17,AGCTTCAGTC,1 ± 0.03
18,AGCTTGAGGT,0.9941 ± 0.0019
19,AGCTTGGAAA,1 ± 0.031
20,AGCTTGGGAA,0.9627 ± 0.0063
21,AGCTTTAGAC,1.09 ± 0.021
22,AGCTTTCCTA,0.9963 ± 0.007
23,AGCTTTCGCG,0.99 ± 0.03
24,AGCTTTCTAT,0.976 ± 0.011
25,AGCTTTTCTT,1.03 ± 0.017

row,Sequence,switch fluorescence ratio
1,AGCTTTTGGG,0.979 ± 0.071
2,AGCTTTTTTG,1.024 ± 0.0039
3,AGGAAAAAAG,1 ± 0.032
4,AGGAAAAAGG,0.974 ± 0.034
5,AGGAAAAAGT,1.02 ± 0.039
6,AGGAAAAATA,0.988 ± 0.053
7,AGGAAAATGG,1 ± 0.021
8,AGGAAAATTT,1 ± 0.047
9,AGGAAACCCG,0.994 ± 0.064
10,AGGAAATAGT,1.05 ± 0.059
11,AGGAAATTGT,1.01 ± 0.059
12,AGGAAGAACG,1.04 ± 0.02
13,AGGAAGGCAC,1.05 ± 0.016
14,AGGAAGTTAG,0.961 ± 0.022
15,AGGAATAAAC,1.02 ± 0.013
16,AGGAATATGG,1.04 ± 0.1
17,AGGAATTTGT,1.035 ± 0.0091
18,AGGACCAGGT,1.02 ± 0.025
19,AGGACCAGTT,1.03 ± 0.055
20,AGGACGAGGG,0.983 ± 0.013
21,AGGACTGAAG,0.989 ± 0.07
22,AGGACTTTAG,0.943 ± 0.091
23,AGGAGAAAAG,1.22 ± 0.29
24,AGGAGATACC,1.03 ± 0.049
25,AGGAGATTAG,0.978 ± 0.029

row,Sequence,switch fluorescence ratio
1,AGGAGCATTT,1.04 ± 0.045
2,AGGAGGAGGG,0.932 ± 0.021
3,AGGAGGCAGG,1.03 ± 0.011
4,AGGAGGCGCG,1.05 ± 0.1
5,AGGAGGGCTC,1.01 ± 0.11
6,AGGAGGTGGC,1.03 ± 0.017
7,AGGAGGTGTC,1.06 ± 0.11
8,AGGAGTACCA,1.04 ± 0.015
9,AGGAGTGGAG,0.996 ± 0.013
10,AGGAGTGTCG,1.04 ± 0.039
11,AGGATAAGGA,0.987 ± 0.029
12,AGGATAATGA,0.998 ± 0.03
13,AGGATCGAGG,1.02 ± 0.028
14,AGGATCGTCA,0.9893 ± 0.0038
15,AGGATGAAAG,0.9896 ± 0.0034
16,AGGATGAATA,0.9974 ± 0.0019
17,AGGATGCATT,1.8 ± 1.1
18,AGGATGGACG,1.02 ± 0.064
19,AGGATGGGGG,0.997 ± 0.045
20,AGGATGGTTC,0.9541 ± 0.0016
21,AGGATTCGGG,1.01 ± 0.021
22,AGGCAAACCC,1.0669 ± 0.00051
23,AGGCAACCAC,1.23 ± 0.033
24,AGGCAGGGGA,1.03 ± 0.025
25,AGGCCAGGGT,1.04 ± 0.021

row,Sequence,switch fluorescence ratio
1,AGGCCATTGG,1.04 ± 0.024
2,AGGCCCTGTT,0.989 ± 0.028
3,AGGCCGGGGT,1.01 ± 0.055
4,AGGCGACTAT,1 ± 0.011
5,AGGCGAGGGA,1.02 ± 0.0049
6,AGGCGAGTTA,0.9937 ± 0.0054
7,AGGCGATTTA,0.976 ± 0.022
8,AGGCGCAGTG,1.04 ± 0.054
9,AGGCGCCGCA,1.01 ± 0.018
10,AGGCGCGGGT,0.998 ± 0.069
11,AGGCGGGCGA,1.02 ± 0.05
12,AGGCGGGCGT,0.9623 ± 0.0022
13,AGGCGGGTGA,1.02 ± 0.013
14,AGGCGGTATC,1.047 ± 0.0025
15,AGGCGGTTTG,0.985 ± 0.034
16,AGGCGTAAAT,0.997 ± 0.029
17,AGGCGTAGCT,1.01 ± 0.044
18,AGGCTAAGAT,1.0077 ± 0.001
19,AGGCTAGCGG,1.01 ± 0.019
20,AGGCTAGTGG,0.993 ± 0.035
21,AGGCTGAGCT,0.979 ± 0.051
22,AGGCTGCAGT,1.013 ± 0.007
23,AGGCTGGAGG,1.01 ± 0.038
24,AGGCTTGGGC,0.971 ± 0.012
25,AGGGAAATGA,0.987 ± 0.024

row,Sequence,switch fluorescence ratio
1,AGGGAAGGTT,0.982 ± 0.022
2,AGGGAATAAA,1 ± 0.031
3,AGGGAATAGC,1.01 ± 0.011
4,AGGGAATCGT,0.9953 ± 0.0013
5,AGGGAATGTT,0.972 ± 0.033
6,AGGGAATTGT,1 ± 0.037
7,AGGGACCTTA,1.04 ± 0.05
8,AGGGACTAGG,0.994 ± 0.011
9,AGGGAGCGCG,0.995 ± 0.011
10,AGGGAGGCGG,0.974 ± 0.032
11,AGGGAGGGGA,1.03 ± 0.061
12,AGGGAGGTGC,1.02 ± 0.051
13,AGGGAGGTTA,0.972 ± 0.06
14,AGGGAGTACA,1.01 ± 0.013
15,AGGGAGTTGC,1.03 ± 0.038
16,AGGGATACCG,1.01 ± 0.066
17,AGGGATCGTC,0.987 ± 0.014
18,AGGGATGGGT,0.976 ± 0.0026
19,AGGGATTAA,0.99 ± 0.054
20,AGGGATTCAT,1.02 ± 0.032
21,AGGGATTGAA,0.9875 ± 0.0022
22,AGGGCAAGCG,0.938 ± 0.041
23,AGGGCAGGGT,0.975 ± 0.018
24,AGGGCCAAGT,0.997 ± 0.011
25,AGGGCGGGTA,1.01 ± 0.014

row,Sequence,switch fluorescence ratio
1,AGGGCTCCTG,1.0172 ± 0.00034
2,AGGGCTGTTA,0.998 ± 0.033
3,AGGGCTTTCT,0.97 ± 0.023
4,AGGGCTTTGT,1 ± 0.014
5,AGGGGAAAGC,1.01 ± 0.027
6,AGGGGAAAGG,0.984 ± 0.014
7,AGGGGAAGCC,1.02 ± 0.066
8,AGGGGAAGTG,0.955 ± 0.07
9,AGGGGACTTT,0.978 ± 0.013
10,AGGGGAGAAC,0.9758 ± 0.0086
11,AGGGGAGGTG,1.09 ± 0.05
12,AGGGGAGTAT,1.45 ± 0.66
13,AGGGGAGTGT,0.988 ± 0.029
14,AGGGGATCGC,0.996 ± 0.034
15,AGGGGATTGG,0.991 ± 0.015
16,AGGGGCACGG,1.02 ± 0.0093
17,AGGGGCGGCG,1.01 ± 0.061
18,AGGGGCGGGC,0.884 ± 0.13
19,AGGGGCGGGG,0.995 ± 0.029
20,AGGGGCGTAG,1 ± 0.025
21,AGGGGGAATG,1 ± 0.044
22,AGGGGGACTG,0.9635 ± 0.0022
23,AGGGGGAGAG,0.969 ± 0.013
24,AGGGGGAGCA,0.9697 ± 0.0045
25,AGGGGGATCA,1.011 ± 0.0061

row,Sequence,switch fluorescence ratio
1,AGGGGGATCG,0.9794 ± 0.0018
2,AGGGGGCAAA,1.02 ± 0.045
3,AGGGGGCAGA,1.03 ± 0.05
4,AGGGGGCAGC,1.01 ± 0.015
5,AGGGGGCCCG,1.009 ± 0.005
6,AGGGGGCGCG,1.01 ± 0.048
7,AGGGGGCTGT,0.994 ± 0.03
8,AGGGGGGACT,0.993 ± 0.011
9,AGGGGGGAGG,0.997 ± 0.026
10,AGGGGGGCGA,1.01 ± 0.029
11,AGGGGGGCGT,1.01 ± 0.016
12,AGGGGGGCTG,0.975 ± 0.045
13,AGGGGGGGG,1.03 ± 0.085
14,AGGGGGGTCA,0.976 ± 0.032
15,AGGGGGGTTG,1 ± 0.032
16,AGGGGGTAGA,1.05 ± 0.027
17,AGGGGGTATC,0.988 ± 0.023
18,AGGGGGTCAC,1 ± 0.026
19,AGGGGGTCCG,1.03 ± 0.049
20,AGGGGGTCGA,1.01 ± 0.035
21,AGGGGGTGTG,0.989 ± 0.043
22,AGGGGGTTTG,1.01 ± 0.033
23,AGGGGTAAAT,1.02 ± 0.073
24,AGGGGTAATA,0.9817 ± 0.006
25,AGGGGTAGCG,0.9539 ± 0.0073
